Series [1] deals with MOD-5000/TF complex (UniProt P08709).
For series [2], the system named is MOD-5014 (activated CTP-modified human Factor VII, FVIIa-CTP3).
Series [3] concerns the target MOD-5000 (commercial recombinant hFVIIa, NovoSeven) (UniProt P08709).
Series [4] concerns the target MOD-5014/TF complex (UniProt P13726).
Series [5] addresses MOD-5000/TF complex (UniProt P08709). Nature of the series: cell-based or functional assay.
Series [6] deals with MOD-5014/TF complex (UniProt P13726). Nature of the series: cell-based or functional assay.
Series [7] has as its target T1, Tissue factor (TF), P13726.
T1 chain: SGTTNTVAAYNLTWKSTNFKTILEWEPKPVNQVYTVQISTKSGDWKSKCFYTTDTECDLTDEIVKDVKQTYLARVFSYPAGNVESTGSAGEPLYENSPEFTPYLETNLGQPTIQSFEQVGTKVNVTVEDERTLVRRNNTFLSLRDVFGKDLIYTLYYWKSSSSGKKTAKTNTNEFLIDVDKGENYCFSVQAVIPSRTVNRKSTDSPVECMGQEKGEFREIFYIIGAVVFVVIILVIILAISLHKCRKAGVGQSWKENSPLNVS

Series [8] has as its target T2, MOD-5014 (activated CTP-modified human Factor VII, FVIIa-CTP3) (human, UniProt P08709 61-212, O-glycans on the CTP serines, sialylated; N-glycans (positions not given); gamma-carboxyglutamic acid (Gla) residues (highly gamma carboxylated; positions not given)).
T2 construct: also called FVIIa-CTP-CTP-CTP; FVIIa-3*CTP
T2 sequence (light): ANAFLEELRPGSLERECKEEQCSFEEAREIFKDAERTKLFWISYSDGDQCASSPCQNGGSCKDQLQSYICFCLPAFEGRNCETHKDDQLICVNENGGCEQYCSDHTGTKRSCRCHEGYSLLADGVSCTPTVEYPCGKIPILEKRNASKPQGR
T2 sequence (heavy): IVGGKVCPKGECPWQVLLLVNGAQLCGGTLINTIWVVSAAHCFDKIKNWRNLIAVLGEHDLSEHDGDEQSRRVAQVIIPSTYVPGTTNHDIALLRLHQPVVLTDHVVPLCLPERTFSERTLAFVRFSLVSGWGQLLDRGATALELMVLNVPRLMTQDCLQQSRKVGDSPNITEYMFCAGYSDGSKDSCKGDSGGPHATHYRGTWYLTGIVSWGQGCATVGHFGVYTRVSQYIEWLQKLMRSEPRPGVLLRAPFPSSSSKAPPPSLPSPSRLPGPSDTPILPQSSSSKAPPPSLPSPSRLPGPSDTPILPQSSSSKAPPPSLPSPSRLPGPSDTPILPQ
Put plainly: titration of FVIIa (0-2 nM) on fixed TF (10 pM), read out as rate of FX activation (Pefachrome FXa). The source says:
Cleavage of synthetic substrate is converted to FXa concentration by a standard curve.

Turning to Factor X (FX), in the series with MOD-5000/TF complex [1], the Km of FX activation by FVIIa/TF came to 0.14 µM and the Vmax of FX activation by FVIIa/TF as a function of FX concentration came to 1.78 nM FXa/min. For the same molecule, in series [2], the Km of FX activation by lipid-bound FVIIa without TF stood at 0.848 µM, the Vmax of FX activation by lipid-bound FVIIa without TF was 0.115 nM FXa/min and the “rate of FX activation on a lipid surface in the absence of TF relative to MOD-5000” value is reported as “The rate of FX activation on a lipid surface in the absence of TF is lower for MOD-5014 (45%) relative to MOD-5000”. Moreover, in series [3], the Km of FX activation by lipid-bound FVIIa without TF stood at 0.878 µM and the Vmax of FX activation by lipid-bound FVIIa without TF was determined as 0.253 nM FXa/min. Further, in the series with MOD-5014/TF complex [4], the Km of FX activation by FVIIa/TF is 0.12 µM; the Vmax of FX activation by FVIIa/TF as a function of FX concentration came out at 1.64 nM FXa/min; the “turnover of FX relative to MOD-5000” value was “When bound to TF, MOD-5014 had a slightly reduced turnover of FX (92%) relative to MOD-5000”.
In turn, “anti-thrombin (AT) (from UniProt P01008 33-464)” showed a k, rate constant of loss of FVIIa/TF activity with AT and heparin in the series with MOD-5000/TF complex [5] of 0.354 min⁻¹. Further, in the series with MOD-5014/TF complex [6], the k, rate constant of loss of FVIIa/TF activity with AT and heparin is 0.217 min⁻¹; the rate of inhibition by AT relative to MOD-5000 is 62%.
“tissue factor pathway inhibitor (TFPI) (from UniProt P10646 29-304)”: the sensitivity to TFPI inhibition of FXa generation relative to MOD-5000 with MOD-5014/TF complex [6] is 124%.

B1: MOD-5014 (activated CTP-modified human Factor VII, FVIIa-CTP3) (protein)
chain 1: T2 sequence (light)
chain 2: T2 sequence (heavy)
As to B1, in series [7], the Vmax of FX activation at saturation of TF with FVIIa is 1.3 nM FXa/min and the k2, rate of Pefachrome FVIIa substrate cleavage by the VIIa/TF complex (mol pNA/min/mol VIIa/TF) stood at 357.

B2: Tissue factor (TF) (receptor, UniProt P13726 33-295, looked up)
chain: T1 chain
B2 yielded a Kd in series [8] of 3 pM.

Usually Kd stands for the free concentration of one partner at which half of the binding sites on the other are occupied at equilibrium, for simple one-to-one binding. Read a low Kd as higher affinity.
